The text below walks through data of paper PMC10715038 (2023).

This experiment deals with SARS-CoV-2 WHU01 RBD, monomeric (SARS-CoV-2 (WHU01), UniProt P0DTC2). Description: SPR. In general terms: In SPR one partner is held on a chip, and binding of the other changes the refractive index at the surface.

B1: horse ACE2 extracellular domain, human IgG1 Fc fusion protein (Fc fusion)
chain: QSTTEDLAKTFLEKFNSEAEELSHQSSLASWSYNTNITDENVQKMNEAGARWSAFYEEQCKLAKTYPLEEIQNLTVKRQLQALQQSGSSVLSADKSKLNEILNTMSTIYSTGKVCNPSNPQECLLLEPGLDAIMENSKDYNQRLWAWEGWRSEVGKQLRPLYEEYVVLKNEMARANNYEDYGDYWRGDYEAEGPSGYDYSRDQLIEDVERTFAEIKPLYEHLHAYVRAKLMDTYPSHINPTGCLPAHLLGDMWGRFWTNLYSLTVPFGQKPNIDVTDAMVDQSWDAKRIFEEAEKFFVSVGLPNMTQGFWENSMLTEPGDGRKVVCHPTAWDLGKGDFRIKMCTKVTMDDFLTAHHEMGHIQYDMAYAVQPYLLRNGANEGFHEAVGEIMSLSAATPNHLKAIGLLPPDFYEDSETEINFLLKQALTIVGTLPFTYMLEKWRWMVFKGEIPKEEWMKKWWEMKREIVGVVEPVPHDETYCDPAALFHVANDYSFIRYYTRTIYQFQFQEALCQTAKHEGPLHKCDISNSTEAGQKLLQMLSLGKSEPWTLALERIVGVKNMDVRPLLNYFEPLFTWLKDQNKNSFVGWSTNWSPYADQSIKVRISLKSALGEKSYEWNDNEMYLFQSSVAYAMRVYFLKAKNQTILFGEEDVWVSDLKPRISFNFFVTSPKNASDIIPRTDVEEAIRMSRSRINDAFRLDDNTLEFLGIQPTLGPPYQPPVTV
In general, Kd refers to the constant that tells how readily two partners part at equilibrium. Low values mean a tighter complex, high ones a looser complex. For the molecule B1, binding was characterised by a dissociation constant (Kd) of 89.8 nM.

B2: cat ACE2 extracellular domain, human IgG1 Fc fusion protein (Fc fusion)
chain: QSTTEELAKTFLEKFNHEAEELSYQSSLASWNYNTNITDENVQKMNEAGAKWSAFYEEQSKLAKTYPLAEIHNTTVKRQLQALQQSGSSVLSADKSQRLNTILNAMSTIYSTGKACNPNNPQECLLLEPGLDDIMENSKDYNERLWAWEGWRAEVGKQLRPLYEEYVALKNEMARANNYEDYGDYWRGDYEEEWTDGYNYSRSQLIKDVEHTFTQIKPLYQHLHAYVRAKLMDTYPSRISPTGCLPAHLLGDMWGRFWTNLYPLTVPFGQKPNIDVTDAMVNQSWDARRIFKEAEKFFVSVGLPNMTQGFWENSMLTEPGDSRKVVCHPTAWDLGKGDFRIKMCTKVTMDDFLTAHHEMGHIQYDMAYAVQPFLLRNGANEGFHEAVGEIMSLSAATPNHLKTIGLLSPGFSEDSETEINFLLKQALTIVGTLPFTYMLEKWRWMVFKGEIPKEQWMQKWWEMKREIVGVVEPVPHDETYCDPASLFHVANDYSFIRYYTRTIYQFQFQEALCRIAKHEGPLHKCDISNSSEAGKKLLQMLTLGKSKPWTLALEHVVGEKKMNVTPLLKYFEPLFTWLKEQNRNSFVGWNTDWRPYADQSIKVRISLKSALGDEAYEWNDNEMYLFRSSVAYAMREYFSKVKNQTIPFVEDNVWVSNLKPRISFNFFVTASKNVSDVIPRSEVEEAIRMSRSRINDAFRLDDNSLEFLGIQPTLSPPYQPPVT
In the case of B2, the Kd was determined as 554 nM.
